Assay results from paper PMC10702835, “Recognition of centromere‐specific histone Cse4 by the inner kinetochore Okp1‐Ame1 complex” (EMBO Reports, 2023).
Where no end group is shown, it is not given here.

Key:
[1] = test system: Okp1‐Ame1; test: GST pulldown, Okp1-Ame1; type: binding, Saccharomyces cerevisiae; details: glutathione agarose, 4°C, 1 h, 20 mM Tris, pH 8.5, 200 mM NaCl, 1 mM TCEP; SDS-PAGE
Procedure: (§1) Figure 3 Biochemical investigation of Okp1‐Ame1‐Cse4^END binding and disruptive point mutations • A GST pulldown assay for Cse4 binding. The indicated COMA complex proteins were tested for their association with immobilized GST‐Cse4^END. • B Fluorescence polarization assay for quantification of Cse4 binding affinities (n = 3 independent replicates). FITC‐labeled Cse4^END peptide was incubated with increasing concentrations of the indicated protein complexes. See also Table 1. • C, D GST pulldown assays as in panel A. Cse4^END and its mutants (L41D, L42D, or L41,42A) were tested in panel C. The indicated Okp1‐Ame1 complexes were tested for their association with GST‐Cse4^END in panel D. Source data are available online for this figure.
(§2) GST‐Cse4^28‐60 was mixed with Okp1‐Ame1, COMA, COMA‐Nkp1‐Nkp2, or Okp1^125‐275 – Ame1^124‐231 and the mixed samples were incubated with glutathione agarose resin at 4°C for 1 h in binding buffer containing 20 mM Tris, pH 8.5, 200 mM NaCl and 1 mM TCEP. Resin was washed at least three times with the same buffer to remove unbound protein, and bound protein then eluted with glutathione. Samples of input and eluate were collected for analysis by SDS–PAGE.

[2] = test system: COMA complex; test: GST pulldown, COMA; type: binding, Saccharomyces cerevisiae; details: glutathione agarose, 4°C, 1 h, 20 mM Tris, pH 8.5, 200 mM NaCl, 1 mM TCEP; compared with COMA-Nkp1-Nkp2
Procedure: as §1, §2

[3] = test system: COMA‐Nkp1‐Nkp2 complex; test: GST pulldown, COMA-Nkp1-Nkp2; type: binding, Saccharomyces cerevisiae; details: glutathione agarose, 4°C, 1 h, 20 mM Tris, pH 8.5, 200 mM NaCl, 1 mM TCEP; compared with COMA
Procedure: as §1, §2

[4] = test system: minimal Okp1‐Ame1 complex (Okp1^125‐275‐Ame1^124‐231); test: GST pulldown, minimal Okp1-Ame1; type: binding, Saccharomyces cerevisiae; details: glutathione agarose, 4°C, 1 h, 20 mM Tris, pH 8.5, 200 mM NaCl, 1 mM TCEP
Procedure: Figure EV3 Further biochemical characterization of the Okp1‐Ame1‐Cse4^END interaction • Pulldown assay showing binding between the truncated Okp1‐Ame1 complex used for crystallography (Okp1^125‐275l‐Ame1^124‐231) and GST‐Cse4^END. • Recombinant proteins used for pulldowns in Fig 3 were tested for their association with GST to determine the level of non‐specific binding. Results of a GST pulldown assay are shown. • The minimal Okp1‐Ame1 complex used for crystallography was tested for its association with FITC‐Cse4^END in a fluorescence polarization experiment. The measured dissociation constant is ~750 nM (see Materials and Methods; n = 3 independent experiments). • GST‐Cse4^END and its mutants were tested for Okp1‐Ame1 binding. • Full‐length mutant Okp1‐Ame1 complex (EYAA or I195Y as indicated) was tested for its association with FITC‐Cse4^END. • Various Okp1‐Ame1 mutants (indicated above) were tested for binding to GST‐Cse4^END. • Various Okp1‐Ame1 mutants were tested for Cse4^END binding as in panel F. Source data are available online for this figure.
GST‐Cse4^28‐60 was mixed with Okp1‐Ame1, COMA, COMA‐Nkp1‐Nkp2, or Okp1^125‐275 – Ame1^124‐231 and the mixed samples were incubated with glutathione agarose resin at 4°C for 1 h in binding buffer containing 20 mM Tris, pH 8.5, 200 mM NaCl and 1 mM TCEP. […]

[5] = biological target: T1, Okp1‐Ame1 (WT, full length) with 10 μM Nkp1‐Nkp2 (S. cerevisiae (budding yeast), UniProt P53298 1-406; P38313 1-324; Q12493 1-238; Q06162 1-153); test: fluorescence polarisation; as a2 (20 nM FITC‐Cse4^28‐60, full-length Okp1‐Ame1 titrated, 200 mM NaCl) with 10 μM Nkp1‐Nkp2 added in excess; details: both partners purified
T1 construct: Okp1, budding yeast, full length; Ame1, budding yeast, full length; Nkp1, budding yeast, full length; Nkp2, budding yeast, full length; the methods call it a titrated complex (Okp1‐Ame1 with Nkp1/2); also called Okp1‐Ame1 W(T) + 10 μM Nkp1‐Nkp2; Okp1‐Ame1 with Nkp1/2; source: E. coli, purified heterodimers Okp1‐Ame1 and Nkp1‐Nkp2, mixed; copies: + + +
T1 sequence (P53298 whole entry, chain 1 of 4): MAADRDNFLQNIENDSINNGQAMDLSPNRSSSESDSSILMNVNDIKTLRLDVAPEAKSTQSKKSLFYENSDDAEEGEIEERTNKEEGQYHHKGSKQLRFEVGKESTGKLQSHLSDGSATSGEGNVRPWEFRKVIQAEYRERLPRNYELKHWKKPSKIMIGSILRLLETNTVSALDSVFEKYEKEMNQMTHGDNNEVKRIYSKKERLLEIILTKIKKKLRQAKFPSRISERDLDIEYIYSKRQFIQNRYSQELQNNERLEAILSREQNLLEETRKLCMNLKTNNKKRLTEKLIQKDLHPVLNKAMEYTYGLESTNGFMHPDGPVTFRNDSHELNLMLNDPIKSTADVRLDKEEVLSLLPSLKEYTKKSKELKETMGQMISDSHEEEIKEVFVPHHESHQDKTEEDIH
T1 sequence (P38313 whole entry, chain 2 of 4): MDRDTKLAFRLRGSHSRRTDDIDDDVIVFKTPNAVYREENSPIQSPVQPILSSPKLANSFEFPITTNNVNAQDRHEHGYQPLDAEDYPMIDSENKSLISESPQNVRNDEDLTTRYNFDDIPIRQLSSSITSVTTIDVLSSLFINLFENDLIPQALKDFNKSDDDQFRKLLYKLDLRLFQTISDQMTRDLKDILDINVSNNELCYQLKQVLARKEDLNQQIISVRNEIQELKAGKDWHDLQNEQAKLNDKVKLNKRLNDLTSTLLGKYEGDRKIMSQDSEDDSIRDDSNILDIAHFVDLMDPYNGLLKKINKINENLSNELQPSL
T1 sequence (Q12493 whole entry, chain 3 of 4): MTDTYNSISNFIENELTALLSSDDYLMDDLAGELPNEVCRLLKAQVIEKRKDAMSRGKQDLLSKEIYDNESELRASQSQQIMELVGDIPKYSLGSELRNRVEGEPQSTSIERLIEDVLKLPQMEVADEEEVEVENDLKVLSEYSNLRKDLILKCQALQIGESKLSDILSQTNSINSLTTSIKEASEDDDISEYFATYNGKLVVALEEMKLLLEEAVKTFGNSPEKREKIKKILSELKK
T1 sequence (Q06162 whole entry, chain 4 of 4): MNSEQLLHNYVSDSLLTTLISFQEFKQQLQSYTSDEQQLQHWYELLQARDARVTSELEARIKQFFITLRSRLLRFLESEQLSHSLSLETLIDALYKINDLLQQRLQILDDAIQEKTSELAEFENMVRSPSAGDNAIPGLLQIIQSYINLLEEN

[6] = biological target: T2, minimal Okp1^125‐275 – Ame1^124‐231 heterodimer (S. cerevisiae (budding yeast), UniProt P53298 125-275; P38313 124-231); test: fluorescence polarisation; 20 nM FITC‐Cse4^28‐60, truncated Okp1‐Ame1 titrated; 100 mM HEPES pH 7.5, 600 mM NaCl, 1 mM TCEP; 30 min at room temperature; 20 μM points left out of the fit; details: both partners purified
T2 construct: Okp1, budding yeast, residues 125-275; Ame1, budding yeast, residues 124-231; no tag; also called truncated Okp1‐Ame1 complex; minimal Okp1‐Ame1 complex used for crystallography; source: E. coli Rosetta 2 (pLysS), pet-Duet co-expression, purified (TALON, TEV cleavage, ion exchange, gel filtration); not shown: His6, N-terminal, cleaved; copies: 1 + 1
T2 sequence (P53298 125-275, chain 1 of 2): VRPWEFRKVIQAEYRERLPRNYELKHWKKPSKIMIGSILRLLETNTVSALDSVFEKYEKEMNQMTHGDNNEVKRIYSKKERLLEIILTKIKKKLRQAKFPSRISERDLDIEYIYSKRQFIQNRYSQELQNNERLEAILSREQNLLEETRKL
T2 sequence (P38313 124-231, chain 2 of 2): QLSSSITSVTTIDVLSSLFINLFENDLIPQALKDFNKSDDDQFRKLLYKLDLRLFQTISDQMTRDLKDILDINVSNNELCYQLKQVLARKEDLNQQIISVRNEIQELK

[7] = biological target: T3, Okp1‐Ame1 heterodimer, full length, wild type (S. cerevisiae (budding yeast), UniProt P53298 1-406; P38313 1-324); test: fluorescence polarisation; 20 nM FITC‐Cse4^28‐60, full-length Okp1‐Ame1 titrated; 100 mM HEPES pH 7.5, 200 mM NaCl, 1 mM TCEP; 30 min at room temperature; one site – total binding fit; triplicate; details: both partners purified
T3 construct: Okp1, inner kinetochore (Ctf19c) protein of budding yeast, full length; Ame1, inner kinetochore (Ctf19c) protein of budding yeast, full length; also called Okp1‐Ame1 (WT); FL; copies: 1 + 1
T3 sequence (P53298 whole entry, chain 1 of 2): as the sequence (P53298 whole entry, chain 1 of 4) above
T3 sequence (P38313 whole entry, chain 2 of 2): as the sequence (P38313 whole entry, chain 2 of 4) above

[8] = biological target: T4, Okp1(EYAA)‐Ame1, full length (S. cerevisiae (budding yeast), UniProt P53298 1-406; P38313 1-324, E235A | Y238A); test: as above; details: both partners purified
T4 construct: Okp1, budding yeast, full length, with E235A and Y238A; Ame1, budding yeast, full length; also called okp1‐E235,Y238A; okp1‐E235A,Y238A; source: recombinant; copies: 1 + 1
T4 sequence (P53298 whole entry E235A/Y238A, chain 1 of 2): as the sequence (P53298 whole entry, chain 1 of 4) above, with E235A, Y238A counted along it
T4 sequence (P38313 whole entry, chain 2 of 2): as the sequence (P38313 whole entry, chain 2 of 4) above

[9] = biological target: T5, Okp1‐Ame1(I195Y), full length (S. cerevisiae (budding yeast), UniProt P53298 1-406; P38313 1-324, I195Y); test: as above; details: both partners purified
T5 construct: Okp1, budding yeast, full length; Ame1, budding yeast, full length, with I195Y; source: recombinant; copies: 1 + 1
T5 sequence (P53298 whole entry, chain 1 of 2): as the sequence (P53298 whole entry, chain 1 of 4) above
T5 sequence (P38313 whole entry I195Y, chain 2 of 2): as the sequence (P38313 whole entry, chain 2 of 4) above, with I195Y counted along it

[10] = biological target: T3, Okp1‐Ame1 heterodimer, full length, …; test: pull-down; GST‐Cse4^28‐60 (or GST) mixed with prey, held on glutathione agarose resin, 4°C 1 h, 20 mM Tris pH 8.5, 200 mM NaCl, 1 mM TCEP; eluted with glutathione; SDS–PAGE; details: both partners purified
[11] = biological target: T6, six‐protein COMA‐Nkp1‐Nkp2 complex (S. cerevisiae (budding yeast), UniProt P53298 1-406; P38313 1-324; Q02732 1-369; Q06675 1-368; Q12493 1-238; Q06162 …); test: as above; details: both partners purified
T6 construct: Okp1, budding yeast, full length; Ame1, budding yeast, full length; Ctf19, budding yeast, full length; Mcm21, budding yeast, full length; Nkp1, budding yeast, full length; Nkp2, budding yeast, full length; constructs as in Hinshaw & Harrison 2019; source: E. coli, purified heterodimers Okp1‐Ame1, Ctf19‐Mcm21 and Nkp1‐Nkp2; copies: + + + + +

[12] = biological target: T2, minimal Okp1^125‐275 – Ame1^124‐231 …; test: as above; details: both partners purified
[13] = biological target: T7, four‐protein COMA complex (Ctf19‐Okp1‐Mcm21‐Ame1) (S. cerevisiae (budding yeast), UniProt P53298 1-406; P38313 1-324; Q02732 1-369; Q06675 1-368); test: as above; details: both partners purified
T7 construct: Okp1, budding yeast, full length; Ame1, budding yeast, full length; Ctf19, budding yeast, full length; Mcm21, budding yeast, full length; constructs as in Hinshaw & Harrison 2019; source: E. coli, purified heterodimers Okp1‐Ame1 and Ctf19‐Mcm21; copies: + + +
T7 sequence (P53298 whole entry, chain 1 of 4): as the sequence (P53298 whole entry, chain 1 of 4) above
T7 sequence (P38313 whole entry, chain 2 of 4): as the sequence (P38313 whole entry, chain 2 of 4) above
T7 sequence (Q02732 whole entry, chain 3 of 4): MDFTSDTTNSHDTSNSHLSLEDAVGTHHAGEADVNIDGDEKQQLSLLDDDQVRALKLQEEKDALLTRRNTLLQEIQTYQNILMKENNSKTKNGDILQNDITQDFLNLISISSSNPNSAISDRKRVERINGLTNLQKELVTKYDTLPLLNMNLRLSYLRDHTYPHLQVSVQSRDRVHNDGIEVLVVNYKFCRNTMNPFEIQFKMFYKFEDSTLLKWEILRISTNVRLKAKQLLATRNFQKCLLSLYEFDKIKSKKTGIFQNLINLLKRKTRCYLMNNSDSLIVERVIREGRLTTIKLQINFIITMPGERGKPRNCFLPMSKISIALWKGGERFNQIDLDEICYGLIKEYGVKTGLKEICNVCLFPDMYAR
T7 sequence (Q06675 whole entry, chain 4 of 4): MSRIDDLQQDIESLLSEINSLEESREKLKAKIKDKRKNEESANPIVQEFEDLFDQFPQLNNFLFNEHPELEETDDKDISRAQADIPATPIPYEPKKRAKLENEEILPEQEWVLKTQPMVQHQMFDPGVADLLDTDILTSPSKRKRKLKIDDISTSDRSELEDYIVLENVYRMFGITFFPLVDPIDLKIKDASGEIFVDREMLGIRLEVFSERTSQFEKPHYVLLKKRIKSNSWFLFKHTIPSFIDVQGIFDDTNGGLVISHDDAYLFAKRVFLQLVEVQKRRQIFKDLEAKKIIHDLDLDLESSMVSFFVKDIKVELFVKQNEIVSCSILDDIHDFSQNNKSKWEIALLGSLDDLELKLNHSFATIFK

[14] = biological target: T8, Okp1^125‐275 (S. cerevisiae (budding yeast), UniProt P53298 125-275); test: crystal structure; Okp1^125‐275 – Ame1^124‐231 mixed with Cse4^28‐60 peptide 1:1.3; hanging drop, 18°C, 19% PEG 8000, 0.55 M lithium sulfate; 1.8 Å, space group P4(2)2(1)2; details: both partners purified
T8 construct: Okp1, budding yeast, residues 125-275; Single chain of m2, written for the pairwise contacts of the crystal structure; also called Okp1 (chain of the crystallised minimal heterodimer); source: E. coli Rosetta 2 (pLysS), co-expressed with Ame1^124‐231, purified; not shown: His6, N-terminal, cleaved
T8 sequence (P53298 125-275): as the sequence (P53298 125-275, chain 1 of 2) above

[15] = biological target: T2, minimal Okp1^125‐275 – Ame1^124‐231 …; test: as above; details: both partners purified
[16] = biological target: T9, Ame1^124‐231 (S. cerevisiae (budding yeast), UniProt P38313 124-231); test: as above; details: both partners purified
T9 construct: Ame1, budding yeast, residues 124-231; no tag; Single chain of m2, written for the pairwise contacts of the crystal structure; also called Ame1 (chain of the crystallised minimal heterodimer); source: E. coli Rosetta 2 (pLysS), co-expressed with Okp1^125‐275, purified
T9 sequence (P38313 124-231): as the sequence (P38313 124-231, chain 2 of 2) above

In the case of “GST‐Cse4^END: Cse4 residues 28–60 with TEV‐cleavable N‐terminal Glutathione S‐transferase tag (AGDQQSINDRALSLLQRTRATKNLFPRREERRR; not fully specified (N-terminus))”, the “binding in GST pulldown” value [1] is reported as “bound Okp1‐Ame1”, the “binding in GST pulldown” value [2] is reported as “equally well” and the “binding in GST pulldown” value [3] is reported as “equally well”. The “binding in GST pulldown” value [4] was “preserved GST‐Cse4^END binding”.

For “cse4‐L41,42A: Cse4^END L41,42A mutant, GST fusion (AGDQQSINDRALSAAQRTRATKNLFPRREERRR; not fully specified (N-terminus))”, the “binding in GST pulldown” value [1] was “failed to bind”.

In the case of “cse4‐L41D: Cse4^END L41D mutant, GST fusion (GST-TEV-Cse4^28-60(L41D)) (AGDQQSINDRALSDLQRTRATKNLFPRREERRR; not fully specified (N-terminus))”, the “binding in GST pulldown” value [1] is reported as “failed to bind”.

In the case of “cse4‐L42D: Cse4^END L42D mutant, GST fusion (GST-TEV-Cse4^28-60(L42D)) (AGDQQSINDRALSLDQRTRATKNLFPRREERRR; not fully specified (N-terminus))”, the “binding in GST pulldown” value [1] is reported as “failed to bind”.

B1: FITC‐Cse4^28‐60 peptide (peptide, UniProt P36012 28-60, looked up)
peptide: AGDQQSINDRALSLLQRTRATKNLFPRREERRR
modifications: not fully specified (N-terminus); also: FITC label, position not given here
notes: Cse4, S. cerevisiae, residues 28-60; also called FITC‐Cse4^END; FITC‐labeled Cse4^END peptide; source: synthetic peptide (Tufts University Core Facility)
For B1, the Kd [5] was 133 nM, the Kd [6] was about 750 nM and the Kd [7] was 152 nM. The Kd [8] was over 3000 nM and the Kd [9] was over 3000 nM.

B2: GST‐Cse4^END (GST fusion of Cse4 residues 28–60) (domain or fragment, S. cerevisiae, UniProt P36012 28-60, looked up)
chain: B1 peptide
notes: Cse4, centromeric histone H3 variant of S. cerevisiae, Essential N-terminal Domain, residues 28-60; The GST tag is TEV-cleavable (pLIC vector) but was kept for the pull-downs; also called GST‐Cse4^28‐60; source: E. coli Rosetta 2 (pLysS), purified (glutathione agarose); not shown: GST, N-terminal, kept
B2: binds [10]; binds [11]; binds [12]. B2: binds [13].

B3: Cse4^28‐60 peptide (Cse4^END peptide) (peptide, UniProt P36012 28-60, looked up)
peptide: B1 peptide
notes: Cse4, S. cerevisiae, residues 28-60 (residues 34-46 ordered in the crystal); also called minimal Cse4^END peptide; source: synthetic peptide (Tufts University Core facility)
B3: binds [14]; binds [15]; binds [16].
